Measured values as given in PMC3839904, “The α-Proteobacteria Wolbachia pipientis Protein Disulfide Machinery Has a Regulatory Mechanism Absent in γ-Proteobacteria” (PLoS ONE, 2013).

How the values were obtained:
α-DsbB = molecular target: T1, α-DsbB (Wolbachia pipientis, UniProt Q73G63); experiment: UQ1 reduction, absorbance at […] nm; AMS gel shift; type: biochemical; details: reduced α-DsbA1 […] as electron donor, pH […] beta-DDM, […]°C
T1 construct: gene WD_1099; full-length integral membrane protein, pET21a (NdeI/XhoI) in E. coli BL21(DE3)pLysS, beta-DDM solubilised, TALON and size exclusion purified
T1 sequence (Q73G63 1-173): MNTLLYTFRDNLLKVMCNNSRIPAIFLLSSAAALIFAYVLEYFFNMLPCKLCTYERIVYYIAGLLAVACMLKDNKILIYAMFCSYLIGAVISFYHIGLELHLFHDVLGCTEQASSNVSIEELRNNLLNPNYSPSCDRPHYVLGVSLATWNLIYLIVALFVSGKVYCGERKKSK

[1] = molecular target: Wolbachia pipientis wMel α-DsbB (integral membrane protein) (Wolbachia pipientis wMel)
[2] = molecular target: α-DsbB [SSCC] (the two cysteines of the first periplasmic loop replaced with serines) (Wolbachia pipientis wMel)
[3] = molecular target: Wolbachia pipientis wMel α-DsbB (integral membrane protein) (Wolbachia pipientis wMel); remark: listed apart in the source
[4] = molecular target: Wolbachia pipientis wMel α-DsbB (integral membrane protein) (Wolbachia pipientis wMel); remark: listed apart in the source
[5] = molecular target: Wolbachia pipientis wMel α-DsbB (integral membrane protein) (Wolbachia pipientis wMel); remark: listed apart in the source

## COC1=C(OC)C(=O)C(CC=C(C)C)=C(C)C1=O [UQ1, ubiquinone-1]
α-DsbB
  UQ1 reduction, absorbance at 275 nm; AMS gel shift: UQ1 reduction was coupled with α-DsbB-mediated oxidation of α-DsbA1

## Wolbachia pipientis wMel α-DsbA1 (enzyme)
[1]
  initial rate of UQ1 reduction (absorbance at 275 nm) with α-DsbB (50 nM), UQ1 (30 µM) and reduced α-DsbA1 (30 µM), 30°C: 0.236 min⁻¹
[2]
  reverse reaction: gel-shift of the oxidation of reduced α-DsbB [SSCC] by oxidized α-DsbA1, within 15 min (% of α-DsbB [SSCC] oxidized): 50
[3]
  initial rate of oxidation of the peptide substrate (time-resolved fluorescence) by α-DsbA1 with α-DsbB membranes (endogenous UQ), pH 5.5: 0.00477 min^-1

## α-DsbA1CA (α-DsbA1 variant with the cysteines of the non-catalytic disulfide replaced with alanine) (enzyme)
[4]
  gel-shift (AMS labelling) of the redox state of reduced α-DsbA1CA with α-DsbB and UQ1; oxidised variant against oxidised wt at 30 sec, 2 min, 5 min (3, 2 and 1.3 fold): 3 fold
[1]
  initial rate of UQ1 reduction (absorbance at 275 nm) with α-DsbB, UQ1 and reduced α-DsbA1CA, 30°C: 0.463 min⁻¹
[5]
  initial rate of oxidation of the peptide substrate (time-resolved fluorescence) by α-DsbA1CA with wt α-DsbB membranes: 0.00621 min⁻¹
